Laboratory results as given in publication PMC4512291.

Columns and labels:
[1] = target: E6 F47R 4C4S, a soluble mutant of HPV16 E6 (HPV16); test: ITC
e6ap peptide = test: ITC

Substance: LxxLL peptide (E6-binding LxxLL motif of E6AP)
- Kd [1]: 42 µM

Substance: E6 F47R 4C4S, a soluble mutant of HPV16 E6 (natural protein)
- Kd (e6ap peptide): > 10 µM
